Measured values reported in US20070293451A1 (UNIVERSITY OF PITTSBURGH, published 2007).
Ends that are not written are not given here. * marks the point of attachment. 6FAM = O=C1OC2(c3ccc(O)cc3Oc3cc(O)ccc32)c2cc(C(=O)*)ccc21; Ahx = NCCCCCC(=O)O

T1: full length Sse1p (yeast Hsp110) (Saccharomyces cerevisiae (yeast), UniProt P32589 2-693)
T1 construct: Purified as in Goeckeler et al., 2002; also called Sselp
T1 sequence: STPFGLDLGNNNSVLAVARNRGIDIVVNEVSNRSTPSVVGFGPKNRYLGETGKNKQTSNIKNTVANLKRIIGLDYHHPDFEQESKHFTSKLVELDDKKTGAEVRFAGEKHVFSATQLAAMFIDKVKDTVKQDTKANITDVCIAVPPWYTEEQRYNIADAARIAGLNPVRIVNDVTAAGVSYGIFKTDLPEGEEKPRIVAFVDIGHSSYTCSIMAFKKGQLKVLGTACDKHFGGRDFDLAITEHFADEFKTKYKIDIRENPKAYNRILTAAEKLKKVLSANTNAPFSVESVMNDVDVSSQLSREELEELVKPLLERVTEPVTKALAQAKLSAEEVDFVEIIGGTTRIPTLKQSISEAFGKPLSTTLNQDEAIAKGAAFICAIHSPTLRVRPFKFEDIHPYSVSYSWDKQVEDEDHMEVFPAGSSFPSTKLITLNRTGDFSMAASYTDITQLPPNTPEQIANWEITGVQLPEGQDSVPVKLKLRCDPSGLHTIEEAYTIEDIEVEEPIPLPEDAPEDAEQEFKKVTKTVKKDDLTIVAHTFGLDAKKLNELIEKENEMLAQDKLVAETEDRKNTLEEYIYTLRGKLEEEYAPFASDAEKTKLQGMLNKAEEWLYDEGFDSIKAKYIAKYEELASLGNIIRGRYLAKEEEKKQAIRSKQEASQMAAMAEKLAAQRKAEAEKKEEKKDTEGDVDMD

T2: peptide binding domain of Sse1p (Saccharomyces cerevisiae (yeast), UniProt P32589 375-693, limits assumed)
T2 sequence: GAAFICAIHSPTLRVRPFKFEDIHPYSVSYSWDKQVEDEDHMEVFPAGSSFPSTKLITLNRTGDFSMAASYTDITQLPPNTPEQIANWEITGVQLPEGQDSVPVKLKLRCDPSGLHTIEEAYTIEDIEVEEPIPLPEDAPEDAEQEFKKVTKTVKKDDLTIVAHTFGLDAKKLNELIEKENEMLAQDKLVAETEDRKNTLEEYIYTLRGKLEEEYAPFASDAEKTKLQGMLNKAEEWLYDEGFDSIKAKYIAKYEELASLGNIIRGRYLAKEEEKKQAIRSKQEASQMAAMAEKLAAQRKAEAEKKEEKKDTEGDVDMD

B1: unlabeled peptide LICGFRVVLMYRF (peptide)
peptide: LICGFRVVLMYRF
B2: 6-carboxyfluorescein-aminohexanoic acid-N-terminal-linked polypeptide LICGFRVVLMYRF (derived from firefly luciferase) (peptide)
peptide: {6FAM-Ahx}-LICGFRVVLMYRF
notes: also called fluorescently labeled peptide

Assays:
[1] = molecular target: T1, full length Sse1p (yeast Hsp110); assay: fluorescence anisotropy competition against the labeled peptide
[2] = molecular target: T2, peptide binding domain of Sse1p; assay: fluorescence anisotropy; reference is full-length Sse1p
Description: (§1) In this assay, full length Sse1p and the peptide binding domain of Sse1p were bound to a 6-carboxyfluorescein-aminohexanoic acid-N-terminal-linked-polypeptide having the sequence N-[…]-C (SEQ ID NO: 1), which was derived from firefly luciferase. Binding was assessed by fluorescence anisotropy. […] Unlabeled peptide competes for binding (data not shown).

[3] = molecular target: T1, full length Sse1p (yeast Hsp110); assay: fluorescence anisotropy
Description: as §1

Binder | binding result [1] | fold lower affinity than full-length Sse1p [2] [fold] | Kd [3] [nM]
B1 | binds |  | 
B2 |  | ~100 | 2 to 3
